We go through one molecule from publication PMC4701441, “Directed Evolution of a Highly Specific FN3 Monobody to the SH3 Domain of Human Lyn Tyrosine Kinase” (PLoS ONE, 2016).

This assay concerns the target T1, GST-Lyn SH3 domain (human, UniProt P07948 63-123).
T1 construct: SH3 domain of human Lyn tyrosine kinase; Plasmid derived from pGEX-2T; also called GST fusion to the SH3 domain of Lyn
As to the kind of experiment: ELISA; competition ELBA: GST-Lyn SH3 domain coated at 5 μg/mL, peptide at 0.1 μM to 40 μM added along with TA8-alkaline phosphatase fusion for 1 h. Conditions: both partners purified. A general note: In an ELISA, binding on a coated surface is turned into a signal by an enzyme label.

T1 sequence (P07948 63-123): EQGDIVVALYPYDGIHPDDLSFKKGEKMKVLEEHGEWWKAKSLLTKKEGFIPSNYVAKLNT

B1: Tip peptide, proline-rich peptide of the tyrosine kinase interacting protein (Tip) of herpesvirus saimiri (peptide)
peptide: GMPTPPLPPRPANLGERQA
As for B1, the binding result was “binds”.
